Columns and labels:
[1] = molecular target: SalEnt LmuA(K68A), catalytically dead nuclease effector, tag cleaved (Salmonella enterica subsp. enterica serovar Tennessee (strain TXSC_TXSC08-19)); assay: cryo-EM structure
[2] = molecular target: SalEnt LmuB, SMC-like (Rad50-like) ABC ATPase (Salmonella enterica subsp. enterica serovar Tennessee (strain TXSC_TXSC08-19)); assay: cryo-EM structure
[3] = test system: LmuA(K68A), LmuA-KA;LmuB;LmuC; assay: fluorescence anisotropy

“SalEnt LmuA(K68A), catalytically dead nuclease effector, tag cleaved (enzyme)” showed a stoichiometry N [1] of 4.

For “SalEnt LmuB, SMC-like (Rad50-like) ABC ATPase (natural protein)”, the stoichiometry N [2] was 2.

40-mer dsDNA 6-FAM showed a Kd [3] of 180 nM.

From doi:10.1101/2025.03.14.643221
